# In patent US20180055925A1 (UNITED STATES OF AMERICA AS REPRESENTED BY THE SECRETARY …, published 2018):
# B1: SpoVM (synthesized 26 amino acid peptide, adsorbed on spherical supported lipid bilayers) (peptide)
# peptide: MKFYTIKLPKFLGGIVRAMLGSFRKD
# notes: also called SpoVM peptide; SpoVM-coated SSLBs
# Biological target: T1, SpoIVA^AF488 (His6-tagged cysteine-less SpoIVA variant, C98S, with a single engineered N-terminal cysteine, … (Bacillus subtilis, UniProt P35149 1-492, Alexa Fluor 488 C5-maleimide on the single engineered cysteine at the N-terminus (second residue)))
# T1 construct: SpoIVA polymerizes in the presence of ATP; also called SpoIVA^A488
# T1 sequence: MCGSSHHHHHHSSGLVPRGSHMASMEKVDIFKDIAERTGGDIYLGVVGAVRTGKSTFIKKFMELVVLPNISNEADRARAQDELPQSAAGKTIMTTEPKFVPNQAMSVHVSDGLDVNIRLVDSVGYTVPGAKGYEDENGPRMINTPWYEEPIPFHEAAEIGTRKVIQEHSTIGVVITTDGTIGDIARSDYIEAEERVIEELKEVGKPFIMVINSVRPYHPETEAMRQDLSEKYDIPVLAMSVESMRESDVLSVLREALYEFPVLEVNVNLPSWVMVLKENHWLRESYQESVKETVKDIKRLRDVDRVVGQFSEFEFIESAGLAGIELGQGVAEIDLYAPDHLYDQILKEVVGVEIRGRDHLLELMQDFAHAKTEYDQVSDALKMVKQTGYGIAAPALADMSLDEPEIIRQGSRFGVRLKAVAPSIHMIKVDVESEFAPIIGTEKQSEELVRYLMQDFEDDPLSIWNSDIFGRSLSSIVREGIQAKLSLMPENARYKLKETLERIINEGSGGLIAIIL
# Experiment: fluorescence microscopy of SpoVM-coated SSLBs incubated with increasing SpoIVA^AF488
# Procedure: SpoVM-coated SSLBs were collected by centrifugation at 13,000×g for 1 minute, and then were incubated with varying concentrations of SpoIVA^AF488 in a final volume of 100 μL buffer A containing 10 mM MgCl₂ and 4 mM ATP, overnight at room temperature with gentle inversion. SSHEL particles were collected by centrifugation and resuspended in 100 μL buffer A for microscopy. For competition assays, SpoVM-SSLBs were incubated with 0.006 μM SpoIVA^A488 in the presence or absence of 4 mM ATP in buffer A containing 10 mM MgCl₂. The fluorescent SSLBs were collected by centrifugation, and resuspended with 100 μL buffer A containing 5 μM unlabeled SpoIVA. 5 μL aliquots were taken at indicated time points for microscopy.
# To test this model of basement layer assembly in vitro, spherical supported lipid bilayers (SSLBs) were constructed by coating 2 μm-diameter silica beads with a phospholipid bilayer (Bayerl and Bloom, Biophys J 58, 357-362 (1990) and Gopalakrishnan and Rouiller, Langmuir 25, 5455-5458 (2009)) to mimic the surface of the forespore. […] The SpoVM-coated SSLBs were then incubated with increasing concentrations of SpoIVA^AF488 and measured its adsorption using fluorescence microscopy (FIG. 1C). […] At higher concentrations of SpoIVA^AF488 the heterogeneity in fluorescence between SSLBs was reduced and SpoIVA^AF488 adsorption approached saturation (FIG. 1C, 1E).
binder,measurement,value
B1,binding result,binds
